Data as given in patent publication US20180142032A1 (Sanofi, published 2018).
Changes are numbered by the printed parent chain.

Experiments:
Assay in all cases: flow cytometry, transfected 293-F cells, experiment 2
mLAMP1_hseq11_ΔGYQTI = target: T1, mLAMP1_hseq11_ΔGYQTI (mouse; human, UniProt P11438 25-369)
T1 construct: on cells; numbering read as for pXL6041; also called pXL6048; not shown: murine transmembrane domain and cytoplasmic tail with GYQTI replaced by 5 Ala
T1 chain: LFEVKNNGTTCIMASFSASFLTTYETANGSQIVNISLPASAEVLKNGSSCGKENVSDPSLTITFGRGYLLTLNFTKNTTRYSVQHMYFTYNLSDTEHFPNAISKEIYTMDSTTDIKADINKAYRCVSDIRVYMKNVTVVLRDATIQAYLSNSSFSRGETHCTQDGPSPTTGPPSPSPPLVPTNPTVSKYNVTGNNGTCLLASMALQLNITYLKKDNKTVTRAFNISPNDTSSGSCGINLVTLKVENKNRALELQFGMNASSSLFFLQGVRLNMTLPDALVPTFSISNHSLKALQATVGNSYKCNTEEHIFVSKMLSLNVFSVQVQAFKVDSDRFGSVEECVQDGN

mLAMP1_hseq6-9-11_ΔGYQTI = target: T2, mLAMP1_hseq6-9-11_ΔGYQTI (mouse; human, UniProt P11438 25-369)
T2 construct: on cells; numbering read as for pXL6041; also called pXL6092; not shown: murine transmembrane domain and cytoplasmic tail with GYQTI replaced by 5 Ala
T2 chain: T1 chain with Y68H, L69T, K76R, T78A, K116R, N120D, A122K

mLAMP1_hseq6_ΔGYQTI = target: T3, mLAMP1_hseq6_ΔGYQTI (mouse; human, UniProt P11438 25-369)
T3 construct: on cells; numbering read as for pXL6041; also called pXL6047; not shown: murine transmembrane domain and cytoplasmic tail with GYQTI replaced by 5 Ala
T3 chain: T1 chain with Y68H, L69T, K76R, T78A, N151S, S152G, S153N, R156K, G157E

mLAMP1_hseq6-11_ΔGYQTI = target: T4, mLAMP1_hseq6-11_ΔGYQTI (mouse; human, UniProt P11438 25-369)
T4 construct: on cells; also called pXL6041; not shown: murine transmembrane domain and cytoplasmic tail with GYQTI replaced by 5 Ala
T4 chain: T1 chain with Y68H, L69T, K76R, T78A

hLAMP1_ΔGYQTI = target: T5, hLAMP1_ΔGYQTI (human, UniProt P11279 29-412)
T5 construct: also called pXL5626
T5 sequence: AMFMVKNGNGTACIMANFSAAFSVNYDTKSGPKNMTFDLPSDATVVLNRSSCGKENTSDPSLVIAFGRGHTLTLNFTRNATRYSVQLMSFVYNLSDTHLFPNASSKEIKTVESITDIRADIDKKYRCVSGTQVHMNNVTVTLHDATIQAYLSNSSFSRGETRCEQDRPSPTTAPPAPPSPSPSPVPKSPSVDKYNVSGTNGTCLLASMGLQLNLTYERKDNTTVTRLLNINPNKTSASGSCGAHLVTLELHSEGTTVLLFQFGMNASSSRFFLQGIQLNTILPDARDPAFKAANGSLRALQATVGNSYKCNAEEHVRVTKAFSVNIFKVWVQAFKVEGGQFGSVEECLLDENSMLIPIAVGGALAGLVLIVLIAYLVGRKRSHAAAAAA

- mean fluorescence (mLAMP1_hseq11_ΔGYQTI): 2
- mean fluorescence (mLAMP1_hseq6-9-11_ΔGYQTI): 499
- mean fluorescence (mLAMP1_hseq6_ΔGYQTI): 3
- mean fluorescence (mLAMP1_hseq6-11_ΔGYQTI): 211
- mean fluorescence (hLAMP1_ΔGYQTI): 551
B1: MAb1 (antibody, mouse IgG2a, kappa)
heavy: QVQLQQSGAELVKPGASVKMSCKASGYIFTNYNIHWVKKSPGQGLEWIGAIYPGNGDAPYSQKFKDKATLTADKSSSTTYMQLSRLTSEDSAVYYCVRANWDVAFAYWGQGTLVSVSAAKTTAPSVYPLAPVCGDTTGSSVTLGCLVKGYFPEPVTLTWNSGSLSSGVHTFPAVLQSDLYTLSSSVTVTSSTWPSQSITCNVAHPASSTKVDKKIEPRGPTIKPCPPCKCPAPNLLGGPSVFIFPPKIKDVLMISLSPIVTCVVVDVSEDDPDVQISWFVNNVEVHTAQTQTHREDYNSTLRVVSALPIQHQDWMSGKEFKCKVNNKDLPAPIERTISKPKGSVRAPQVYVLPPPEEEMTKKQVTLTCMVTDFMPEDIYVEWTNNGKTELNYKNTEPVLDSDGSYFMYSKLRVEKKNWVERNSYSCSVVHEGLHNHHTTKSFSRTPGK
light: DIQMTQSPPSLSASLGGKVTITCKASQDIDRYMAWYQDKPGKGPRLLIHDTSTLQPGIPSRFSGSGSGRDYSFSISNLEPEDIATYYCLQYDNLWTFGGGTKLEIKRADAAPTVSIFPPSSEQLTSGGASVVCFLNNFYPKDINVKWKIDGSERQNGVLNSWTDQDSKDSTYSMSSTLTLTKDEYERHNSYTCEATHKTSTSPIVKSFNRNEC
notes: murine monoclonal IgG, kappa, from hybridoma; also called murine MAb1
